Biological target: Get1/2 heterodimer, cytosolically labeled (Get1-S77C-Cy5 and Get2-S28C-Cy3) (yeast) (UniProt P53192)
Assay: FRET or BRET

Kd: < 1 nM
stoichiometry N (Get3 homodimer per Get1/2 heterodimer): 1
B1: Get3-D57N (enzyme)
chain: MDLTVEPNLHSLITSTTHKWIFVGGKGGVGKTTSSCSIAIQMALSQPNKQFLLISTNPAHNLSDAFGEKFGKDARKVTGMNNLSCMEIDPSAALKDMNDMAVSRANNNGSDGQGDDLGSLLQGGALADLTGSIPGIDEALSFMEVMKHIKRQEQGEGETFDTVIFDTAPTGHTLRFLQLPNTLSKLLEKFGEITNKLGPMLNSFMGAGNVDISGKLNELKANVETIRQQFTDPDLTTFVCVCISEFLSLYETERLIQELISYDMDVNSIIVNQLLFAENDQEHNCKRCQARWKMQKKYLDQIDELYEDFHVVKMPLCAGEIRGLNNLTKFSQFLNKEYNPITDGKVIYELEDKE
